Results taken from paper PMC6287623.

Key:
[1] = target: Manα2Manα2Manα-ThrB27 insulin glycoform 13 (human); assay: AUC
[2] = target: unglycosylated human insulin 1 (human); assay: AUC

Row | Substance | percent monomer [1] [%] | stoichiometry N [2]
1 | Manα2Manα2Manα-ThrB27 insulin glycoform 13 (natural protein) | > 70 | 
2 | unglycosylated human insulin 1 (natural protein) |  | 2
